Experimental findings from the supplement of paper PMC12042874 are described below.

± gives the uncertainty stated by the source.

This data set in a line: amyloid nucleation score (Sup35N fusion, yeast selection) (log enrichment); library NNK1; higher = more nucleation; inactive = no reads after selection. The essentials:
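The nucleation score equals the log enrichment of output over input reads from DiMSum, centred on the mode score of non-aggregating sequences. It was computed only for sequences with 100 or more input reads. The reads came from Illumina sequencing of plasmid inserts from psi-negative yeast expressing Sup35N fused to peptides of 20 random codons, induced with 100 μM copper sulfate for 24 hours and grown 7 days at 30°C without adenine and uracil.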
DWLHQSRL had an amyloid nucleation score of 0.239 ± 0.42. In the case of WDWSERLQAFWSVTLSSNSW, the amyloid nucleation score worked out at 0.517 ± 0.71. Then TRLVVLRSW, with 1.14 ± 0.98; and RFQVPLCIPLINC, with 0.886 ± 0.74; and EDSYFYFRIEGISTVKCMAR, with -0.427 ± 1.9. Take QSVHDTHSCHGSH: the amyloid nucleation score was determined as 0.5 ± 0.63. In the case of ISTPKDISSPKSFWNIFFGT, the amyloid nucleation score worked out at 4.65 ± 0.069. For RTELPHFFRVFAHRFACSGD the value was 1.31 ± 0.93. In turn, TIGASKFMICWTDSFHLQSQ showed an amyloid nucleation score of 3 ± 0.12. AHLAVPSQLNECFIVSLWV showed an amyloid nucleation score of 0.328 ± 0.76.

Take NVYAMCTITMNYSVVVTHSC: the amyloid nucleation score came to 3.35 ± 0.15. For AYTCDV the value was 0.03 ± 0.29; for TMSSSNQSQMFPSVIYSEGH, -0.209 ± 0.9. In turn, FLFYRCLGVKFFVFFMIVSK returned an amyloid nucleation score of -0.817 ± 2.4.

For LLIDSPCNWCTRGRSCKFSY, the amyloid nucleation score entry is “inactive”.

In the case of PMNYGSSNA, the amyloid nucleation score is -0.224 ± 1.7.

The substance NVSISVR registered an amyloid nucleation score of -0.054 ± 0.38. Substance LGGFYTRRCVCSLGTRQERE gave an amyloid nucleation score of -0.072 ± 0.49. IRLIKIPVKFKFVSTMCSGC: the amyloid nucleation score was -0.1 ± 0.93. Take FPDGEYPMTYTLWELKYVFV: the amyloid nucleation score was -0.487 ± 0.65. In the case of YELKSDNLFVRLF, the amyloid nucleation score was -0.706 ± 0.46. For LHCYFAFDLLWIALRTTVRI the value was -0.457 ± 1; for SRYSNDLSDIMGDDESRSAH, 0.136 ± 0.28.

Take LKYCYGTT: the amyloid nucleation score came to 0.171 ± 0.29.

YGKSYVIDGVVWGRQDSWES registered an amyloid nucleation score of -0.748 ± 1.6. For VTKVTLMLFLSCWLF, the amyloid nucleation score is -0.677 ± 0.47.

TTPIEAV: the amyloid nucleation score is -0.178 ± 1.2.

In turn, GIVCYKCSVDFLLSWLSVVF registered an amyloid nucleation score of -0.092 ± 0.31. Substance RSMRDLDPTMVFGSVNSLGW displayed an amyloid nucleation score of 0.166 ± 0.63. Then YISFHTTSYRFRLYRLL, with 0.894 ± 0.17; and NSWVSINMCNVFGPHCMWTV, with 7.21 ± 0.074; and FHVVSFQGETCDHRIGRIVY, with 0.002 ± 0.33. AYMWLGAINICLWYWSLGR returned an amyloid nucleation score of 3.02 ± 0.21.

For the substance KYLFFMVFQWS, the amyloid nucleation score is 0.439 ± 0.84. In the case of SIAYPRNIELRWDEIGGDML, the amyloid nucleation score was 0.178 ± 0.54. For LGAMRLFTRSLFLADWKYDV the value was -0.04 ± 0.45; for TTWRMIFVVKRLHWFGLK, -0.445 ± 0.46. GLFKICYLVT came in with an amyloid nucleation score of 0.408 ± 0.34.

With LFCSLGSSPAYVNKWCVHLE, the amyloid nucleation score was 0.862 ± 0.45. Then CSGCQARIWALDRRRRVEVS, with 0.213 ± 0.69; and HLHLGCWW, with 3.31 ± 0.14. Substance ARNIVSFDGTFYSFKQTYTP had an amyloid nucleation score of 2.12 ± 0.19. On to SLLMRIS, for which the amyloid nucleation score was -0.434 ± 0.61. In turn, YLRDVRLYCVMRK showed an amyloid nucleation score of -0.129 ± 0.38. TFIVQPFLTENPIASRFESA registered an amyloid nucleation score of 0.063 ± 0.38.

The substance VWTSWDGRSLIAEWVCYLE registered an amyloid nucleation score of 6.232 ± 0.048.

For FVECSERRGSKGSLYIDEVS, the amyloid nucleation score was -0.629 ± 0.73. Then RAVLSTSELGLPTV, with 0.27 ± 0.89; and WFTGGFRVIMGS, with 0.728 ± 0.97; and ICMILVPFMPT, with 0.976 ± 1.1. For NLQSCLVYKVSVGNLPLIYL the value was -0.45 ± 1.2. Then NNLVFHGSKHNIKVRRMEMG, with -1.14 ± 2.7; and YTRMLLRGAIETGFYPNMLE, with -1.2 ± 2.1. Take SINVPPHSGHELH: the amyloid nucleation score worked out at 1.12 ± 0.76. The substance PLTGAGFTIEML yielded an amyloid nucleation score of -0.132 ± 0.36. Substance VHIFCSTTCFFMNFMLIQNK displayed an amyloid nucleation score of -0.045 ± 0.51.

For the substance LCLLIDNTYIVDVFFYVLSQ, the amyloid nucleation score is 1.49 ± 0.32. Then TRNSDASGNCCVTGRDV, with -0.849 ± 0.45.

GKEDRIG registered an amyloid nucleation score of -0.093 ± 0.81. SHLMPGCEKFLHCVSFPDA: the amyloid nucleation score was -0.45 ± 0.56. Consider ASHFELYRLRKGLMCSVVSI, for which the amyloid nucleation score entry was “inactive”.

LNWNCITCTLNFVKYVTDCR registered an amyloid nucleation score of 7.866 ± 0.046. In turn, KNALWVRTVKNMCVLWDTGF gave an amyloid nucleation score of -1.08 ± 1.4.

Substance TGSLWRLRTSACWVLNHRKS displayed an amyloid nucleation score of -1.09 ± 1.

As for LRVMKKRLVDATHNFVPVAN, the amyloid nucleation score came to 4.33 ± 0.075.

As for TYLQRCSIFRPSLTSMG, the amyloid nucleation score turned out to be 0.273 ± 0.45. Turning to SIWKRLYFQVNGL, the amyloid nucleation score was 0.925 ± 0.92. SSFCRLLNIMYSRWGGLGTY: the amyloid nucleation score result is “inactive”. Substance FHEDKIS returned an amyloid nucleation score of 1.34 ± 0.36.

Consider MYSKIYIFNLEFLMTYWNAL, for which the amyloid nucleation score was found to be 1.92 ± 0.3. As to FSMLIDEELDFSAETSLRHG, the amyloid nucleation score was 0.637 ± 0.59. For FYEIY, the amyloid nucleation score stood at 0.021 ± 0.93.

For the substance WCGVFESGNRPKSQGKGSKW, the amyloid nucleation score was determined as 0.159 ± 0.55.

YIVYFESRN yielded an amyloid nucleation score of 0.438 ± 0.16. Then PLSRVLGYVFIISRRTNRIL, with -0.206 ± 0.28.

SGSSTVWCAYRMTGQPPGRT gave an amyloid nucleation score of 1.37 ± 0.51. With GGPQLKVCSFGLFWWFIEVV, the amyloid nucleation score result is “inactive”. LLPLLSMGRTPLRCKPMASS gave an amyloid nucleation score of 0.058 ± 0.3. Take DRPTFKLVFTMKLVSLVTSL: the amyloid nucleation score entry is “inactive”. For LLEALQNLGRLLITTPLVV, the amyloid nucleation score came out at 0.475 ± 0.84.

Substance FFRMMKSLFQMRVRIDCRMG returned an amyloid nucleation score of -0.653 ± 1.4. Substance FDATFVMLRSRAFFKICKER had an amyloid nucleation score of 0.751 ± 0.27. In the case of QLSFYSFCPMATYRSSNSDL, the amyloid nucleation score turned out to be 5.92 ± 0.053.

FFILSFNIRIYIFEVVTFLK showed an amyloid nucleation score of 0.555 ± 0.52. With FRLVYNNFAIT, the amyloid nucleation score is -1.78 ± 2.4. In the case of NRSGGTSAIDYHSWLVYHAG, the amyloid nucleation score was -0.161 ± 0.28. For WSIKFQS the value was -0.123 ± 0.49; for PRTLPVLFNLSLKGSSHTYF, 4.52 ± 0.064. For CSFYHVFRCSVGFDVFFSTD, the amyloid nucleation score was -0.259 ± 0.41. Then HRQTNKGEHIQDHAAMLVFR, with -0.18 ± 0.63.

In turn, TRSKMALGVQYHGLMQLYCR showed an amyloid nucleation score of 0.121 ± 0.31. Take TRTGSRHPWRCLSDIASCNG: the amyloid nucleation score came to 0.466 ± 0.32. For the substance TFYSCHP, the amyloid nucleation score was 1.49 ± 0.37. TAAYRFNESVHVSNSRFMVH yielded an amyloid nucleation score of 0.334 ± 0.42.

The substance THYNAGSCKMLNQAPFHRIS displayed an amyloid nucleation score of -0.352 ± 0.33. Take GLGYPSVFSEHCVGLRDCEL: the amyloid nucleation score was -0.189 ± 1.7. The substance VFSDTPALCIDGLKLFAMVR registered an amyloid nucleation score of -0.182 ± 0.3. For the substance VAVTSSMFFRPNFNLNTVLS, the amyloid nucleation score was found to be 3.69 ± 0.067. Then NELWCKADVMS, with “inactive”; and MWAAGDNHYSNKVLSLAMVV, with 0.501 ± 1; and LYLSWSFSALSV, with -0.593 ± 1.2.

CNCAGDLYAVRLYDGGCSSL showed an amyloid nucleation score of -0.006 ± 0.46.

RFMYAISSVTRYPMWPGMMQ: the amyloid nucleation score turned out to be 2.45 ± 0.18.

On to QRMLHAYLCVNWAELTHIRV, for which the amyloid nucleation score is 0.034 ± 0.6.

Consider MQVNIVGVSILVAWPR, for which the amyloid nucleation score was 6.48 ± 0.071. TLLIMLLYKSTILCVQPDLM had an amyloid nucleation score of 0.032 ± 0.6. Then REWIYLVVETPCYFVDDVMD, with -0.71 ± 0.52; and GVIYS, with 0.077 ± 0.28. Substance STGPNLKVLVSSKS showed an amyloid nucleation score of -1.66 ± 0.69. Take MYMGAPSIVVIVMLQNMKFV: the amyloid nucleation score was determined as 2.34 ± 0.32. Turning to MKQFIKNLNISLPPARTQLT, the amyloid nucleation score result is “inactive”. With VSQTPWTLYLN, the amyloid nucleation score came to 0.229 ± 0.26. The substance WLTTGFLFVKLGGHKESSVQ gave an amyloid nucleation score of 0.015 ± 0.33. Take NRRVCEVR: the amyloid nucleation score is -0.148 ± 1.1. The substance VVQGCIYYCHNVWYLDVFSF had an amyloid nucleation score of 4.62 ± 0.089.

LDEFSTSISITEWSSKL yielded an amyloid nucleation score of -0.261 ± 0.3. SNVVNGLDTYSQPGKGWCVR gave an amyloid nucleation score of 0.581 ± 0.37. SRLMLFQIFDAKQIDVNDM registered an amyloid nucleation score of 5.03 ± 0.071. Then WRGCVNFCEKKPGVGVSSV, with 0.076 ± 0.55; and FMNGLGPAVAYIMGYTYVSM, with 6.369 ± 0.063. On to SFSHVYFYGVPYGQVPYRSV, for which the amyloid nucleation score was determined as 1.5 ± 0.28. Regarding IGRMSYWGCRTLNNSPCGKF, the amyloid nucleation score was -1.22 ± 1.7. With IHGTMRGYWHMLFQELNIGV, the amyloid nucleation score was -0.152 ± 0.54. HGNYTHQMTPAELFLRHMRF: the amyloid nucleation score was -0.991 ± 2.4.

On to KLTHVNDLLTMVVNVSRAQG, for which the amyloid nucleation score was -0.004 ± 1.4. Substance YNYREWFSLIYFCIWDITWS yielded an amyloid nucleation score of -1.01 ± 0.41. The substance LCSNYQCLTTVYQLVVVAEW registered an amyloid nucleation score of 3.54 ± 0.13. For the substance LCAISHIE, the amyloid nucleation score is -0.502 ± 0.28. Then MKFRINVDLLLNLDNPGIKL, with 0.165 ± 0.45. The substance SYVSKSYLYKRGSELQAVLQ displayed an amyloid nucleation score of -0.157 ± 0.65. In turn, SSRYFLFLAHTHWLCTMTCP showed an amyloid nucleation score of -0.064 ± 0.8. For LWVTRRPVGGFMW, the amyloid nucleation score came out at 0.721 ± 0.79. Turning to RKSFLTLVNFYYLFRC, the amyloid nucleation score came out at 3.1 ± 0.12. Turning to NMSESCNMDTLYGYDLRQWV, the amyloid nucleation score is 0.088 ± 0.33.

The substance SHMMHSMAEVSFARYWDKQS had an amyloid nucleation score of -2.46 ± 1.9.

On to PWLKVQFVKREVTIDFRVRV, for which the amyloid nucleation score entry is “inactive”. Substance EWVALRCLDMEGAVAPLALV came in with an amyloid nucleation score of 1.02 ± 0.28. The substance RSSNNIPGGYWEPYGQHHFH had an amyloid nucleation score of 2.44 ± 0.13.
